{"source": "paper PMC7667676", "molecular_target": "endogenous phosphorylated p38 (P-p38) (human (endogenous in Huh7.5.1)) (UniProt Q16539)", "sequence (Q16539 whole entry)": "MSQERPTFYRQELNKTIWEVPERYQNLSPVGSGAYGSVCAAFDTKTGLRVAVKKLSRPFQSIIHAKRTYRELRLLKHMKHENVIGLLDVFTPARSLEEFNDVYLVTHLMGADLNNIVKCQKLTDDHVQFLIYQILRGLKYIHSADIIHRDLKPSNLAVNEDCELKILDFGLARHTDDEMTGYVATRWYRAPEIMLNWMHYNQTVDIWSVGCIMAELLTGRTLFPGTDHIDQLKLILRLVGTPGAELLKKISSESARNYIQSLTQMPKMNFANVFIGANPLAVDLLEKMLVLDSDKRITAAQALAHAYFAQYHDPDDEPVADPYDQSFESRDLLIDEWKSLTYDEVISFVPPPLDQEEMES", "data": [{"substance": "HCV core protein N-terminal peptide (CN-peptide)", "values": [{"measurement": "reduction of intracellular HCV RNA (qRT-PCR) in JFH1-infected primary human hepatocytes incubated with the CN-peptide for 72 h; the pair blocked is p38α and the HCV core protein (m8 and m9)", "result": 91, "unit": "%"}]}]}
